Assay results taken from the supplement of paper PMC11811203.

B1: THAP1; numbered along this chain (parent)
chain: MVQSCSAYGCKNRYDKDKPVSFHKFPLTRPSLCKEWEAAVRRKNFKPTKYSSICSEHFTPDCFKRECNNKLLKENAVPTIFLCTEPHDKKEDLLEPQEQLPPPPLPPPVSQVDAAIGLLMPPLQTPVNLSVFCDHNYTVEDTMHQRKRIHQLEQQVEKLRKKLKTAQQRCRRQERQLEKLKEVVHFQKEKDDVSERGYVILPNDYFEIVEVPA

Variants of: B1
Assay: THAP1 transcriptional activity (GFP+/GFP- enrichment relative to wild-type constructs) (ratio to WT); higher = more THAP1 activity (PSMB5 reporter activation)
Conditions: with PSMB5 promoter-GFP reporter
How it was run: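 A site-saturation library of human THAP1 (residues 2–213, each changed to all 20 amino acids) was transduced by lentivirus at MOI ~0.3, in duplicate, into THAP1-knockout HEK-293T cells carrying mClover3 knocked in at endogenous PSMB5. After five days, BFP+ cells were sorted into GFP-dim and GFP-bright bins, and variants were counted by Illumina sequencing of genomic DNA amplicons. Activity is the replicate-mean bright/dim read fold change divided by the mean of wild-type synonymous constructs.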

THAP1 transcriptional activity: each site, then its substitutions
C133: L 1.89; M 0.928; N 1.15; P 0.267; Q 1.27; R 1.24; S 1.44; T 0.872; V 2.05; W 2.31; Y 0.913
D134: A 0.125; C 0.156; E 0.389; F 0.144; G 0.148; H 0.203; I 0.153; K 0.141; M 0.159; N 0.121; P 0.296; Q 0.0618; R 0.265; S 0.277; T 0.354; V 0.123; W 0.177; Y 0.166
H135: A 0.145; C 0.22; D 0.195; E 0.396; F 0.196; G 0.152; I 0.146; L 0.0852; M 0.0946; N 0.183; P 0.31; Q 0.151; R 0.0891; S 0.182; T 0.111; V 0.227; W 0.177; Y 0.217
N136: A 0.208; C 0.164; D 0.153; E 0.14; F 0.279; G 0.109; H 0.131; I 0.149; K 0.142; L 0.102; M 0.134; P 0.263; Q 0.102; R 0.364; S 0.345; T 0.311; V 0.0965; W 0.0779; Y 0.187
Y137: A 0.0848; C 0.147; D 0.172; E 0.152; F 0.161; G 0.161; H 0.111; I 0.109; K 0.211; L 0.167; M 0.114; N 0.195; P 0.117; Q 0.186; R 0.214; S 0.137; T 0.136; V 0.0934; W 0.0825
T138: A 2.41; C 2.63; D 0.306; E 0.215; F 0.626; G 0.526; H 0.837; I 0.274; K 0.191; L 0.13; M 0.238; N 0.196; P 0.286; Q 0.224; R 0.375; S 1.07; V 0.728; W 0.363; Y 0.424
V139: A 0.763; C 0.724; D 0.0939; E 0.369; F 0.996; G 0.378; H 0.721; I 0.897; K 1.41; L 1.18; M 1.22; P 0.163; Q 0.576; R 0.938; S 0.407; T 0.34; W 0.454; Y 0.59
E140: A 1.46; C 0.908; D 0.727; F 1.16; G 2.94; H 0.784; I 1.08; K 4.18; L 1.81; M 1.04; N 1.33; P 3.02; Q 1.61; R 1.3; S 1.48; T 1.57; V 1.01; W 1.1; Y 1.16
D141: A 0.37; C 0.355; E 1.51; F 0.552; G 0.809; H 0.514; I 0.309; K 0.927; L 0.286; M 0.395; N 0.776; P 0.986; Q 0.581; R 0.588; S 0.634; T 0.642; V 0.352; W 0.255; Y 0.644
T142: A 0.581; C 0.803; D 0.738; E 1.23; F 0.386; G 0.864; H 0.658
